According to patent US20230365705A1 (DYNAMICURE BIOTECHNOLOGY, published 2023):

B1: 16E4 (hybridoma) (antibody, IgG2a, V domains shown)
VH: QVQLQQPGAELVKPGASVKLSCKASGYTFTSYWMHWVKQRPGQGLEWIGEIDPSASYTYYNQKFKGKATLTVDKSSSTAYMQLSSLTSEDSAVYYCARSVYYGNKYFDVWGAGTTVTVSS
VL: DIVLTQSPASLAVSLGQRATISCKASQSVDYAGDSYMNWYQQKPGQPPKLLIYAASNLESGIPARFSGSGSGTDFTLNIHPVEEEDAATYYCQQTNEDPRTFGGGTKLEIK
notes: also called 16E4 mAb; 16E4 mIgG2a
B2: h7F3 (humanized 7F3, VH3+VL3) (antibody, human IgG1, V domains shown)
VH: QVQLVQSGAEVKKPGASVKVSCKASGYTFTDYEMHWVRQAPGQGLEWMGGIDPETGDTAYNQNFKGRVTMTTDTSTSTAYMELRSLTSDDTAVYYCTNYGNLYYYAMDYWGQGTSVTVSS
VL: EIVLTQSPSSLSASVGDRVTITCRASSSVSSSYLHWYQQKPGKAPKLLIYSTSNLAFGVPSRFSGSGSGTSYTFTISSLQPEDIATYYCQQYSGYPLTFGSGTKLEIK
notes: also called humanized 7F3-hIgG1
B3: h16E4 (humanized 16E4, VH4+VL6) (antibody, V domains shown)
VH: QVQLVQSGAEVKKPGASVKVSCKASGYTFTSYWMHWVRQAPGQGLEWMGEIDPSASYTYYNQKFKGRVTMTRDKSSSTVYMELSSLTSEDSAVYYCARSVYYGNKYFDVWGAGTTVTVSS
VL: DIQMTQSPSTLSASVGDRVTITCKASQSVDYAGDSYMNWYQQKPGKAPKLLIYAASNLESGVPSRFSGSGSGTEFTLTISSLQPDDFATYYCQQTNEDPRTFGGGTKLEIK
notes: Detected with anti-human IgG, so a human Fc

What was measured:
[1] = molecular target: T1, Human CD93 on cells (human CD93 expressing CHO cells; HUVEC, U937 and KG1a cells) (human, UniProt Q9NPY3 22-652); assay: summary table, column FACS (CHO-hCD93 cells)
T1 construct: whole, on cells; also called hCD93 expressing CHO cells; hCD93 CHO cells
T1 sequence (looked up): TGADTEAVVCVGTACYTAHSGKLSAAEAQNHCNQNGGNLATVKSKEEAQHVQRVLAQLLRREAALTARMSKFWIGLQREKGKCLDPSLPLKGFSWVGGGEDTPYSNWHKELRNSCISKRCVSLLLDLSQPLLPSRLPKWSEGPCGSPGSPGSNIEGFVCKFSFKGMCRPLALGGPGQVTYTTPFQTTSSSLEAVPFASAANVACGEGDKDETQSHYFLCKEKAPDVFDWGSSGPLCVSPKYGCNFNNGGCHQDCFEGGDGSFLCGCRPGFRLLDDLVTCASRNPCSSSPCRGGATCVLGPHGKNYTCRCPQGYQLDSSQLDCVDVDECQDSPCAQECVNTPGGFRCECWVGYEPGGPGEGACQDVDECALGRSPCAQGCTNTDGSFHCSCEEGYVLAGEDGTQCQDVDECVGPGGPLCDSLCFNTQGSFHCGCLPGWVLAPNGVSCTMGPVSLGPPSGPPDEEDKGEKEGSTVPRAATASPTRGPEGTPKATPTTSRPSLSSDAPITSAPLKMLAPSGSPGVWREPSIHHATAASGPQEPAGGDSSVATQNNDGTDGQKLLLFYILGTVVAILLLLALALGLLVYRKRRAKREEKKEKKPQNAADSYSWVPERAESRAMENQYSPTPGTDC

[2] = molecular target: T1, Human CD93 on cells (human CD93 …); assay: flow cytometry titration, KG1a cells
Procedure: KG1a cells were detached by incubation with TrypLE reagents (Thermo Fisher), which preserves the integrity of CD93 on the cell surface. Then the cells were incubated with serial diluted anti-CD93 antibodies for 30 minutes at 4° C. After washing by FACS buffer, the cells were incubated with Alexa Fluor 647 conjugated anti-human IgG (Jackson ImmunoResearch) for 30 minutes in 4° C. After washing by FACS buffer twice, the samples were acquired in NovoCyte Flow Cytometer and analyzed by NovoExpress software.

[3] = molecular target: T2, Human CD93 recombinant protein (Sino Biological Inc, Catalog #12589-H08H) (human, UniProt Q9NPY3 22-580); assay: ELISA, His-tagged human CD93 coated, OD450
T2 construct: Biotinylated (EZ-LINK NHS-PEG4 biotin) in the BLI assays; also called hCD93; His-tagged human CD93
T2 sequence (looked up): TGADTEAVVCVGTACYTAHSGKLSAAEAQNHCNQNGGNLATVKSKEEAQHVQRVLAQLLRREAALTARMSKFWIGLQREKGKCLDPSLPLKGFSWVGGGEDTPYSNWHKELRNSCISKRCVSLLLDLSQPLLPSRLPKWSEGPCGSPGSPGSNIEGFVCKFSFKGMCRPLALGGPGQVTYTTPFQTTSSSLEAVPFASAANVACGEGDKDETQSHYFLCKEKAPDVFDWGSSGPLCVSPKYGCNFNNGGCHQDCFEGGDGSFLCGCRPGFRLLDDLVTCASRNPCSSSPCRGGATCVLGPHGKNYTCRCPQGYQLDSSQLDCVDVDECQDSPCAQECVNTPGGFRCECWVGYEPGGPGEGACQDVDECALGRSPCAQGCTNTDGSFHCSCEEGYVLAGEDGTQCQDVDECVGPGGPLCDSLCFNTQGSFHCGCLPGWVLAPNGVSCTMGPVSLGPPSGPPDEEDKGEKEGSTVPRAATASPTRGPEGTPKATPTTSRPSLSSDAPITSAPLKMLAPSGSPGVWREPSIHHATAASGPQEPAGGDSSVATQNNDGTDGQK
Procedure: (§1) His-tagged human CD93 was coated onto a 96 well plate at 1 μg/mL in 1×PBS overnight at 4° C. The plate was washed with ELISA wash buffer (Boston BioProduct, Inc.) and the wells were blocked with ELISA blocking buffer for 1 hour at 37° C. […] The plate was washed with ELISA wash Buffer. HRP-conjugated anti-human Fc antibody was incubated for 1 hour at 37° C. The plate was washed with ELISA wash Buffer. HRP substrate was added for indirect detection of the antibodies binding to CD93.

[4] = molecular target: T2, Human CD93 recombinant protein (Sino …); assay: summary table, column ELISA (hCD93); 4 weeks at 40 C
Procedure: as §1, §1

[5] = molecular target: T2, Human CD93 recombinant protein (Sino …); assay: summary table, column Octet (hCD93); 2 weeks at 40 C
Procedure: (§2) The binding affinity of anti-CD93 antibodies was determined with bio-layer interferometry using Octet QKe (Fortebio). […] Human CD93 recombinant protein (Sino Biological Inc, Catalog #12589-H08H) was biotinylated using EZ-LINK NHS-PEG4 biotin (Thermo Fisher Scientific). Streptavidin biosensors (Fortebio) were used to load biotinylated CD93 protein (300 seconds in 5 μg/ml). Baseline was stabilized for 60 seconds in 1×kinetics buffer (Fortebio) before anti-CD93 antibodies, at a serial dilution, were allowed to associate for 300 seconds with captured protein. Then the sensors were dissociated in 1× kinetics buffer for 600 seconds. […] (FIG. 41).
as §2, with “1× kinetics” for “1×kinetics”, “42).” for “41).”

[6] = molecular target: T2, Human CD93 recombinant protein (Sino …); assay: summary table, column Octet (hCD93); 4 weeks at 40 C
Procedure: as §2
as §2, with “1× kinetics” for “1×kinetics”, “42).” for “41).”

[7] = molecular target: T1, Human CD93 on cells (human CD93 …); assay: summary table, column FACS (CHO-hCD93 cells); 4 weeks at 40 C

Binder	EC50 [1]	EC50 [2]	EC50 [3]	EC50 [4]	Kd [5]	Kd [6]	EC50 [7]
B1	0.59 nM	–	–	–	–	–	–
B2	–	0.024 nM	0.0427 nM	0.0407 nM	0.495 nM	0.487 nM	0.195 nM
B3	0.388 nM	0.131 nM	0.033 nM	0.051 nM	0.0204 nM	0.112 nM	0.312 nM
